# From publication PMC7022936
# Tested on: DcGliZ full-length (Dichotomomyces cejpii FS110)
# Assay: SPR
# Settings: SPR: HBS-EP (10 mM HEPES pH 7.4, 150 mM NaCl, 0.005% P20), 22 C; EMSA: Beyotime chemiluminescent kit, 5 uL of 1 uM probe + 2 uL protein (~1 mg/mL in Methods …)
row,Sequence,Kd [nM]
1,GTTTCTATGTCTATATCGGAGGAGTGATCAACGGCGTCCGAAAATTCGGCCCGCGGCTGTCTTAGGGCTGGCCTGCAGGTGTAGGGTTCATTATGAAAGACTGGTAGTATTATGCTGCTATTTAGTCAAAAGCAGAAGAACAGTTTGTCTTTAGACCTTGAATAGATATCTGTCAAGACAAGAGCCAAGAAAGTCCCATCACCATGGCAGACATGACCGAACGACCTTCTGATCTCGTTGTGGACAGGCTGGTTCTCTTCG (double strand) [pG (gliG promoter)],160
2,TAGTCTATCACTGAACAGTTGAATGAATTTGTTTCAAGACAGCTAAAGCTCCATTCTAGCCGTACGTACTGGTAGTTCTCCGCATAGAAACATATATCTCTCTGCTTGGTCAAAGTCAGGTATCGCCGACAAGTCTTAATATCTGCAGAGTATTCGGTGACCGAAATAGGGTCGGAATATAAGCCATATATATCACTGTTCTGGAAATCAAGAAAATATAACAGTTGAATACTCACTTTTCTAACATTCCAACAATCAGTTGAGCTCGATCACA (double strand) [pM (gliM promoter)],162
3,TTACTTCTTGGTCTACTCCGTATTGTGAATCGAAATGAGATAGAAGTATAGTTCTACTGTACTGGTTTCTATCTGCTTAAAATAAATACAATTGTGCCTTCTATACAGATCAGTATGTAGAATGAACTGATAGACCTCCAGGAGGTTCTTCCTCCGAGCCTGCAACGCCCAAGAGGAGAACTGTGCATACGCCAGGACAGATTTTCGGCCTCCGAAAAGGACTGAGGATAGTATCTGCCATGTTTATATATAACTGAGGGAATAGACCAGGTAGATAACAGCAAAATCAACTAAACATCATC (double strand) [pN (gliN promoter)],104
